Experimental data as given in US20050152896A1 (Amgen, published 2005).

T1: murine galanin (mature, processed form) (murine, UniProt P47212 33-61, not fully specified)
T1 construct: mature
T1 peptide (looked up): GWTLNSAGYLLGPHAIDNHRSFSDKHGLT

T2: human galanin (mature, processed form) (human, UniProt P22466 33-62, 125I-labelled in the filtration and immunoprecipitation assays; biotinylated in the IGEN assay and in the BIAcore assay of Table 4)
T2 construct: mature; the assays used the mature peptide; also called biotinylated galanin
T2 peptide (looked up): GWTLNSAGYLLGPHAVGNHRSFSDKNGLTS

T3: peptide of the 14 C-terminal amino acids of human galanin (human, UniProt P22466 49-62)
T3 construct: domain: 14 C-terminal amino acids of human galanin
T3 peptide (looked up): GNHRSFSDKNGLTS


Tests used:
[1] = molecular target: T1, murine galanin (mature, processed form); assay: epitope mapping
[2] = molecular target: T2, human galanin (mature, processed form); assay: BIAcore SPR; biotinylated galanin on a streptavidin chip, MAb flowed
Protocol: The galanin binding assay uses the ORIGEN technology (IGEN, Gaithersburg, Md.) and measures solution state binding. 0.75 μg/ml biotinylated galanin and 2 μg/ml ORI-TAG anti-mouse IgG were preincubated with serially diluted MAbs. 0.4 mg/ml streptavidin-coated Dyna beads were added, incubated, and read on an IGEN M8 Analyzer. In the plasmon surface resonance assay, biotinylated galanin was bound to a streptavidin-coated sensor chip and MAbs allowed to pass through the flow cells in order to generate on and off rates. In every assay tested, the MAbs ranked in virtually the same order.

[3] = molecular target: T2, human galanin (mature, processed form); assay: BIAcore 3000; IgG captured by goat anti-human IgG Fc on CM5, human galanin peptide flowed; 1:1 Langmuir fit
Excerpt: In terms of ELISA signal, the top 17 Fab fragments consisted of various combinations of three light chains and five heavy chains. For example, the heavy variable region of Fab P1A7 was identical to the heavy variable regions of Fabs R2E9 and R2E8. The five heavy variable regions were amplified by PCR and the PCR products were subcloned into a human IgG1 heavy chain mammalian expression vector, pVE414N. The three light variable region products were amplified by PCR and were subcloned into a human kappa light chain mammalian expression vector, pDC414N. The sequences of the heavy and light chains constructs were confirmed by DNA sequencing. Fab fragment P1A7 yielded the strongest ELISA signal. To determine which heavy or light variable regions might yield the highest affinity antibody, each heavy chain was co-expressed with the P1A7 light chain, and each light chain was co-expressed with the P1A7 heavy chain. These IgG heavy and light chain combinations were expressed in […] and were purified from the cell culture medium using protein A affinity chromatography. Affinities of these purified antibodies were measured on a BIAcore 3000. Goat anti-human IgG Fc antibody immobilized on CM5 sensor chips was used to capture P1A7 and the variants. Human galanin peptide was flowed over the chip surface with captured anti galanin antibody. The binding kinetics was analyzed using the model fit of 1:1 Langmuir+local Rmax+Mass Transfer. […] Antibodies with P1A7 light chain paired with the five different heavy chains yield nearly identical dissociation constants.

[4] = molecular target: T3, peptide of the 14 C-terminal amino …; assay: co-crystal structure

binding result [1]	Ka [2]	Kd [2]	Kd [3]	koff [3]	kon [3]	binding result [4]	Binder
binds	5e+08 M⁻¹	2.1 nM					murine monoclonal antibody 2E11 (antibody, V domains shown, the legend is followed) VH: EIQLQQSGAEVMKPGASVKISCKATGYTFSNYWIEWIKQRPGHGLEWIGEILPGSESTKYNEKFKGKATFTTDTSSNTAYMQLSSLTSEDSAVYYCATFYGGFDYWGQGTTLTVSS VL: not shown
			1.8 nM	0.0059 s⁻¹	3.3e+06 M⁻¹ s⁻¹		humanized 5B4 IgG1: light chain zu5B4 v04 with heavy chain zu5B4 v04 (antibody, V domains shown, also called P1A7 (as IgG1); humanized 5B4-v4) VH: EVQLVQSGAEVKKPGATVKISCKVSGFNIEDYYMHWVQQAPGKGLEWMGRIDPENGNTIYDPKFQGRVTITADTSTNTAYLDLSSLRSEDTAVYYCARGYVDWGQGTLVTVSS VL: DVVMTQSPLSLPVTLGQPASISCRSSQSIVHSDGDTYLEWYLQRPGQSPMLLIYKVSNRFSGVPDRFSGSGSGTDFTLKITRVEAEDVGVYYCFQGSHVPYTFGGGTKVEIKR
			2.3 nM	0.0095 s⁻¹	4.2e+06 M⁻¹ s⁻¹		humanized 5B4 IgG1: light chain zu5B4 v05 with heavy chain zu5B4 v04 (antibody, V domains shown, Human IgG1 / human kappa, expressed in E5 cells; VH of humanized 5B4-v4, VL of humanized 5B4-v5) VH: EVQLVQSGAEVKKPGATVKISCKVSGFNIEDYYMHWVQQAPGKGLEWMGRIDPENGNTIYDPKFQGRVTITADTSTNTAYLDLSSLRSEDTAVYYCARGYVDWGQGTLVTVSS VL: DVVMTQSPLSLPVTLGQPASISCRSSQSIVHSDGDTYLEWYQQRPGQSPMSLIYKVSNRFSGVPDRFSGSGSGTDFTLKITRVEAEDVGVYYCFQGSHVPYTFGGGTKVEIKR
			2 nM	0.007 s⁻¹	3.5e+06 M⁻¹ s⁻¹		humanized 5B4 IgG1: light chain zu5B4 v13 with heavy chain zu5B4 v04 (antibody, V domains shown, Human IgG1 / human kappa, expressed in E5 cells; VH of humanized 5B4-v4, VL of humanized 5B4-v13) VH: EVQLVQSGAEVKKPGATVKISCKVSGFNIEDYYMHWVQQAPGKGLEWMGRIDPENGNTIYDPKFQGRVTITADTSTNTAYLDLSSLRSEDTAVYYCARGYVDWGQGTLVTVSS VL: DVVMTQSPLSLPVTLGQPASISCRSSQSIVHSDGDTYLEWYQQRPGQSPMLLIYKVSNRFSGVPDRFSGSGSGTDFTLKITRVEAEDVGVYYCFQGSHVPYTFGGGTKVEIKR
			1.8 nM	0.005 s⁻¹	2.8e+06 M⁻¹ s⁻¹		humanized 5B4 IgG1: light chain zu5B4 v04 with heavy chain zu5B4 v13 (antibody, V domains shown, Human IgG1 / human kappa, expressed in E5 cells; VH of humanized 5B4-v13, VL of humanized 5B4-v4) VH: EVQLVQSGAEVKKPGATVKISCKVSGFNIEDYYMHWVQQAPGKGLEWIGRIDPENGNTIYDPKFQGRVTITADTSTNTAYMDLSSLRSEDTAVYYCARGYVDWGQGTLVTVSS VL: DVVMTQSPLSLPVTLGQPASISCRSSQSIVHSDGDTYLEWYLQRPGQSPMLLIYKVSNRFSGVPDRFSGSGSGTDFTLKITRVEAEDVGVYYCFQGSHVPYTFGGGTKVEIKR
			1.6 nM	0.0051 s⁻¹	3.2e+06 M⁻¹ s⁻¹		humanized 5B4 IgG1: light chain zu5B4 v04 with heavy chain zu5B4 v06 (antibody, V domains shown, Human IgG1 / human kappa, expressed in E5 cells; VH of humanized 5B4-v6, VL of humanized 5B4-v4) VH: EVQLVQSGAEVKKPGATVKISCKVSGFNIEDYYMHWVQQAPGKGLEWIGRIDPENGNTIYDPKFQGRATITADTSTNTAYLDLSSLRSEDTAVYYCARGYVDWGQGTLVTVSS VL: DVVMTQSPLSLPVTLGQPASISCRSSQSIVHSDGDTYLEWYLQRPGQSPMLLIYKVSNRFSGVPDRFSGSGSGTDFTLKITRVEAEDVGVYYCFQGSHVPYTFGGGTKVEIKR
			1.5 nM	0.0048 s⁻¹	3.2e+06 M⁻¹ s⁻¹		humanized 5B4 IgG1: light chain zu5B4 v04 with heavy chain zu5B4 v12 (antibody, V domains shown, Human IgG1 / human kappa, expressed in E5 cells; VH of humanized 5B4-v12, VL of humanized 5B4-v4) VH: EVQLVQSGAEVKKPGATVKISCKVSGFNIEDYYMHWVQQAPGKGLEWMGRIDPENGNTIYDPKFQGRATITADTSTDTAYLDLSSLRSEDTAVYYCARGYVDWGQGTLVTVSS VL: DVVMTQSPLSLPVTLGQPASISCRSSQSIVHSDGDTYLEWYLQRPGQSPMLLIYKVSNRFSGVPDRFSGSGSGTDFTLKITRVEAEDVGVYYCFQGSHVPYTFGGGTKVEIKR
			1.7 nM	0.0056 s⁻¹	3.2e+06 M⁻¹ s⁻¹		humanized 5B4 IgG1: light chain zu5B4 v04 with heavy chain zu5B4 v11 (antibody, V domains shown, Human IgG1 / human kappa, expressed in E5 cells; VH of humanized 5B4-v11, VL of humanized 5B4-v4) VH: EVQLVQSGAEVKKPGATVKISCKVSGFNIEDYYMHWVQQAPGKGLEWMGRIDPENGNTIYDPKFQGRVTITADTSTNTAYMDLSSLRSEDTAVYYCARGYVDWGQGTLVTVSS VL: DVVMTQSPLSLPVTLGQPASISCRSSQSIVHSDGDTYLEWYLQRPGQSPMLLIYKVSNRFSGVPDRFSGSGSGTDFTLKITRVEAEDVGVYYCFQGSHVPYTFGGGTKVEIKR
binds	1.4e+10 M⁻¹	0.07 nM					murine monoclonal antibody 4B3 (antibody, mouse IgG1, V domains shown, purified from ascites) VH: EIQLQQSEAELVKPGASVRLSCATSGFNIKDYYIHWVKQTTEQGLEWIGRIDPEDGETEYAPKFQGKATIAADTSSNTAYLLLNSLSSEDTAVYYCTRGYASWGQGTTLTVSS VL: DVLMTQTPLSLSVSLGDQASISCRSSQSFVHSDGNTYLEWYLQKSGQSPKLLIYKVSNRFSGVPDRFSGSGSGTDFTLKINRVEAEDLGVYYCFQGSHVPYTFGGGTKLEIKR
binds	7.5e+09 M⁻¹	0.13 nM					murine monoclonal antibody 5B4 (antibody, mouse IgG2a, V domains shown, purified from ascites; also called hybridoma 5B4C1 (ATCC PTA-5651)) VH: EVQLQQSGAELVRPGALVKLSCKASGFNIEDYYMHWVRQRPEEGLEWIGRIDPENGNTIYDPKFQGKASITADTSSNTAYLQLSSLTSEDTAVYYCVRGYVDWGQGTLVTVSA VL: DVLMTQTPLSLPVSLGDQASISCRSSQSIVHSDGDTYLEWYLQKAGQSPKLLIYKVSNRFSGVPDRFSGSGSGTDFTLKISRVEAEDLGLYYCFQGSHVPYTFGGGTKLEIKR
binds	9.3e+09 M⁻¹	0.11 nM					murine monoclonal antibody 1G12 (antibody, mouse IgG1, V domains shown, The legend prints 'murine 1G2' for the VH) VH: EVQLQQSGAELVKPGASVQLSCTASGFNIKDYYIHWVQQRTEQGLEWIGRIDPEDGEIEYAPKFQDKATITADTSSNTAYLQLSSLTSEDSAVYYCTRGYASWGQGTTLTVSS VL: DVLMTQTPLSLPVSLGDQASISCRSSQTFVHSDGNTYLEWYLQKPGQSPKLLIYKVSNRFSGVPDRFSGSGSGTDFTLKISRVEAEDLGVYYCFQGSHVPYTFGGGTKLEIKR
						binds	Fab fragment of murine antibody 4B3 (Fab, V domains shown, Papain Fab of the hybridoma antibody; also called 4B3 Fab) VH: EIQLQQSEAELVKPGASVRLSCATSGFNIKDYYIHWVKQTTEQGLEWIGRIDPEDGETEYAPKFQGKATIAADTSSNTAYLLLNSLSSEDTAVYYCTRGYASWGQGTTLTVSS VL: DVLMTQTPLSLSVSLGDQASISCRSSQSFVHSDGNTYLEWYLQKSGQSPKLLIYKVSNRFSGVPDRFSGSGSGTDFTLKINRVEAEDLGVYYCFQGSHVPYTFGGGTKLEIKR
binds	1.5e+10 M⁻¹	0.09 nM					murine monoclonal antibody 1D7 (antibody, mouse IgG1, V domains shown, purified from ascites; also called hybridoma 1D7D1 (ATCC PTA-5650)) VH: EIQLQQSEAELVKPGASVRLSCATSGFNIKDYYIHWVKQTTEQGLEWIGRIDPEDGETEYAPKFQGKATIAADTSSNTAYLLLNSLSSEDTAVYYCTRGYASWGQGTTLTVSS VL: DVLMTQTPLSLSVSLGDQASISCRSSQSFVHSDGNTYLEWYLQKSGQSPKLLIYKVSNRFSGVPDRFSGSGSGTDFTLKINRVEAEDLGVYYCFQGSHVPYTFGGGTKLEIKR
	6.7e+09 M⁻¹	0.15 nM					murine monoclonal antibody 2H9 (antibody, mouse IgG1, V domains shown) VH: EIQLQQSEAELVKPGASVRLSCATSGFNIKDYYIHWVKQTTEQGLEWIGRIDPEDGETEYAPKFQGKATIAADTSSNTAYLLLNSLSSEDTAVYYCTRGYASWGQGTTLTVSS VL: DVLMTQTPLSLSVSLGDQASISCRSSQSFVHSDGNTYLEWYLQKSGQSPKLLIYKVSNRFSGVPDRFSGSGSGTDFTLKINRVEAEDLGVYYCFQGSHVPYTFGGGTKLEIKR
						binds	Fab fragment of murine antibody 5B4 (Fab, V domains shown, Papain Fab of the hybridoma antibody; also called 5B4 Fab) VH: EVQLQQSGAELVRPGALVKLSCKASGFNIEDYYMHWVRQRPEEGLEWIGRIDPENGNTIYDPKFQGKASITADTSSNTAYLQLSSLTSEDTAVYYCVRGYVDWGQGTLVTVSA VL: DVLMTQTPLSLPVSLGDQASISCRSSQSIVHSDGDTYLEWYLQKAGQSPKLLIYKVSNRFSGVPDRFSGSGSGTDFTLKISRVEAEDLGLYYCFQGSHVPYTFGGGTKLEIKR
binds	6.8e+09 M⁻¹	0.15 nM					murine monoclonal antibody 2F8 (antibody, mouse IgG1, V domains shown) VH: EVQLQQSGAELVRPGALVKLSCKASGFNIEDYYIHWVRQRPEEGLEWIGRIDPENGNTIYDPKFQGKASLTADTSSNTAYLQLSSLTSEDTAVYFCARGYVDWGQGTLVTVSA VL: DVLMTQTPLSLPVSLGDQASISCRSSQSIVHSDGDTYLEWYLQKPGQSPKLLIYKVSNRFSGVPDRFSGSGSGTDFTLKIIRVEAEDLGLYFCFQGSHVPYTFGGGTKLEIKR
	2.5e+09 M⁻¹	0.4 nM					murine monoclonal antibody 1A1 (antibody, V domains shown, the legend is followed) VH: EIQLQQSEAELVRPGALVKLSCKTSGFNIKDYYMHWVKQRPEQGLEWIGRIDPENDNSIYDPNFQGKASITADTSSNTAYLQLSSLTSEDTAVYYCVRGYVDWGQGTLVTVSA VL: DVLMTQTPLSLPVSLGDQASISCRSSQSIVHSDGDTYLEWYLQKPGQSPKLLIFKVSNRFSGVPDRFSGSGSGTDFTLKISRVEAEDLGVYYCFQGSHVPYTFGGGTKLEIKR
